Laboratory results taken from article PMC7183857.

Biological target: CA_(E180A) and CA_(E187A)
Test: co-sedimentation

## MxB_(1–35)-MBPdi (from UniProt P20592 1-35)
  binding as percent of WT CA tubes: 73 to 83 % of WT
